The nature of series [1]: folding stability dG unfold from chymotrypsin proteolysis; higher = more stable. The method, then: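 Folding stability of de novo designed mini-proteins (<80 aa, no Cys; designed by TrROS, TrMRF, ProteinMPNN and the joint model) was measured by cDNA display proteolysis with trypsin and chymotrypsin. Each protease was used at 11 concentrations in a threefold dilution series plus a no-protease condition. K50 was inferred by Bayesian fitting of sequencing counts, and dG unfold was derived against a sequence-predicted unfolded-state K50 (Tsuboyama et al. method). Sequences shown include variable-length N-terminal GS-type padding (SAGGSAGG...) inside a display construct carrying a PA tag. Rows were kept only if the AF2 dimer inter-PAE was >15, to exclude likely homo-oligomers.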

Series [2] can be described thus: folding stability dG unfold (combined trypsin and chymotrypsin); higher = more stable. A digest of the protocol: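 Designed mini-proteins with no cysteine and under 80 residues were kept only if AlphaFold2 dimer inter-PAE was above 15. In a PA-tagged cDNA display construct, they were digested with trypsin and chymotrypsin and then sequenced. K50 was inferred by Bayesian fitting of counts, and unfolding free energy was derived per protease or combined against a sequence-predicted unfolded-state K50 and a shared folded-state K50.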

± gives the half width of the 95% confidence interval. Some results are limits rather than exact numbers.

As for “SAGGSAGGSAGGMSSTVTVTTTPVDPNVGLYRVTTTTYYVDPDGPAHPGTSVSLVNRALSSAGGSAGGSAGG [r11_51_JUSTAS]”, the “folding stability dG unfold” value was -1.34 ± 0.83 kcal/mol in series [1] and < -1 kcal/mol in series [2].

Consider “SAGGSAGGSAGGMSVSPEGYSVSVTGSGPRGVPVPASNAAEQRAALAAQPDVSSVTVTASSAGGSAGGSAGG [r11_587_JUSTAS]”, for which the “folding stability dG unfold” value was 0.36 ± 0.05 kcal/mol in series [1] and -0.883 ± 0.18 kcal/mol in series [2].

Regarding “SAGGSAGGSAGGMTETKVYPKSSEGGKLTTITTTTTPLKDPKGNWSTKTTTTTSVSPATSAGGSAGGSAGGS [r10_496_JUSTAS]”, the “folding stability dG unfold” value in series [1] is 0.131 ± 0.15 kcal/mol; in series [2] it was -0.486 ± 0.27 kcal/mol.

As for “SAGGSAGGSAGGMTITKSPEPDLVTVTLPDASGTTVATLTFSPEVVESDPALVAAAAAATSAGGSAGGSAGG [r17_496_JUSTAS]”, the “folding stability dG unfold” value in series [1] is 0.516 ± 0.095 kcal/mol; in series [2], -0.335 ± 0.39 kcal/mol.

Turning to “SAGGSAGGSAGGMTRTITVKSPGDAEAVVEELKPLGWEVKEIKKDTANPNVYTVTVEKPSAGGSAGGSAGGS [r10_104_JUSTAS]”, the results for the “folding stability dG unfold” value in series [1] and in series [2] were 0.752 ± 0.15 kcal/mol and 0.198 ± 0.25 kcal/mol, respectively.

For the sequence “SAGGSAGGSAGGMVPGETVTITIPVPPTGKEVPVEISTTLPPEEREALAEAKAAELEAALSAGGSAGGSAGG [r7_957_JUSTAS]”, the results for the “folding stability dG unfold” value in series [1] and in series [2] were 0.602 ± 0.025 kcal/mol and -0.199 ± 0.11 kcal/mol, respectively.

Consider “SAGGSAGGSAGGNKKKIELHFFFDPGQPAEEAKDFIRGAALENGDTITDVDIHWVPPEDFSAGGSAGGSAGG [r7_703_TrROS]”, for which the “folding stability dG unfold” value is 0.201 ± 0.11 kcal/mol in series [1] and -0.384 ± 0.3 kcal/mol in series [2].

For the sequence “SAGGSAGGSAGGPALAEELARKLPPGARVRVRVERDADGNLTITVEVEPAPPVEVVEEESAGGSAGGSAGGS [r10_385_TrROS_Hall]”, the results for the “folding stability dG unfold” value in series [1] and in series [2] were 0.366 ± 0.044 kcal/mol and -0.06 ± 0.23 kcal/mol, respectively.

For “SAGGSAGGSAGGPKVTVFDDHPKKVVLVEFPDKPILAVYDPVTKEVVLLNPDTDELLPLSAGGSAGGSAGGS [r10_434_TrMRF]”, the figures for the “folding stability dG unfold” value in series [1] and in series [2] were -0.551 ± 0.22 kcal/mol and -0.889 ± 0.47 kcal/mol, respectively.

For the sequence “SAGGSAGGSAGGPLLALFDPVPGRVVVVGLRPLPEDSYELDPYVLELDPTTGEAKVRKASAGGSAGGSAGGS [r10_1041_TrMRF]”, the “folding stability dG unfold” value in series [1] is -0.547 ± 0.42 kcal/mol; in series [2] it was -0.852 ± 0.59 kcal/mol.

Take “SAGGSAGGSAGGPVVTETPTTSVVYDPAKGTVTYVTPTVVTFPDGTTTTTVASTTVPLPASAGGSAGGSAGG [r11_308_JUSTAS]”: the “folding stability dG unfold” value in series [1] was found to be 0.531 ± 0.15 kcal/mol; in series [2], 0.0838 ± 0.2 kcal/mol.

With “SAGGSAGGSAGGPWKIKEIETVPEGGKERMTIKIEDDNGKPKKPVHMPPDDLDNLPPDLISAGGSAGGSAGG [r7_263_TrROS]”, the figures for the “folding stability dG unfold” value in series [1] and in series [2] were -0.605 ± 0.24 kcal/mol and < -1 kcal/mol, respectively.

Regarding “SAGGSAGGSAGGRTYRLTLTRPDGRPLTFEVPTDTAPEHVELLKSLFPDEEIEADISDVESAGGSAGGSAGG [r7_349_TrMRF]”, the “folding stability dG unfold” value in series [1] was 0.491 ± 0.22 kcal/mol; in series [2] it was -0.652 ± 0.46 kcal/mol.

For “SAGGSAGGSAGGSAAEFVAAHPDVEARPVEEGPGSVLVALRPPGGPELLVRVEGAAVTLESAGGSAGGSAGG [r7_26_JUSTAS]”, the results for the “folding stability dG unfold” value in series [1] and in series [2] were -0.459 ± 0.34 kcal/mol and < -1 kcal/mol, respectively.

For the sequence “SAGGSAGGSAGGSAPYALVEVLPGGVVVVAYPDGSRRLVEVERDPSSDLWRVLREEDLPSAGGSAGGSAGGS [r4_247_JUSTAS]”, the “folding stability dG unfold” value stood at 0.688 ± 0.1 kcal/mol in series [1] and 0.278 ± 0.068 kcal/mol in series [2].

For “SAGGSAGGSAGGSEEKPLVIPIPAHPDIPAEVVRKAVEPLTGVPIEAVLGDEDTLLVVGSAGGSAGGSAGGS [r4_469_TrMRF]”, the “folding stability dG unfold” value stood at 0.661 ± 0.022 kcal/mol in series [1] and 0.187 ± 0.077 kcal/mol in series [2].

Turning to “SAGGSAGGSAGGSFTLTTPGRTETVPAGSEVYFGNGIKLHPDLPLADIPPELLTPIGTRPSAGGSAGGSAGG [r17_511_TrMRF]”, the figures for the “folding stability dG unfold” value in series [1] and in series [2] were 0.48 ± 0.27 kcal/mol and -0.229 ± 0.24 kcal/mol, respectively.

For “SAGGSAGGSAGGSGGVTVSQYEGGKATRTVTSFDPVNNSTSTTTTTTFTIPPDEPVTVSSAGGSAGGSAGGS [r10_1153_JUSTAS]”, the results for the “folding stability dG unfold” value in series [1] and in series [2] were 0.236 ± 0.2 kcal/mol and -0.371 ± 0.29 kcal/mol, respectively.

With “SAGGSAGGSAGGSGPEELAAAARAAHPELGAPVRVEVTYTPEAGEFPVRVFLPEDGAALSAGGSAGGSAGGS [r4_312_JUSTAS]”, the “folding stability dG unfold” value in series [1] is -0.335 ± 0.14 kcal/mol; in series [2], < -1 kcal/mol.

For “SAGGSAGGSAGGSGRVEIELEFKLENGFYVRIKAEIEFEEDGKIRIKVEIELLPEELEESAGGSAGGSAGGS [r4_297_TrROS_Hall]”, the “folding stability dG unfold” value in series [1] amounted to 3.67 ± 0.34 kcal/mol; in series [2], 3.89 ± 0.41 kcal/mol.

For “SAGGSAGGSAGGSHIQFDPEGRWKIRNRDNNNTREFPADDLPKLPPDFDIPKGARIEPYSAGGSAGGSAGGS [r4_91_TrROS]”, the “folding stability dG unfold” value in series [1] was -0.134 ± 0.25 kcal/mol; in series [2] it was -0.518 ± 0.19 kcal/mol.

For the origin of these results see the supplement of paper PMC12764529.
